Results from the supplement of paper PMC7877785.
± gives the uncertainty stated by the source.

Assay: self-splicing fitness, log relative to wild type (ln ratio); higher = more splicing; Tetrahymena group I intron in knt gene, E. coli kanamycin selection, DiMSum; sequences stand for … in CUCUCU…GGAGGGAAAAGUUAUCAGGCAUGCACCUGGUAGCUAGUCUUUAAACCAAUAGAUUGCAUCGGUUUAAAAGGCAAGACCGUCAAAUUGCGGGAAAGGGGUCAACAGCCGUUCAGUACCAAGUCUCAGGGGAAACUUUGAGAUGGCCUUGCAAAGGGUAUGGUAAUAAGCUGACGGACAUGGUCCUAACCACGCAGCCAAGUCCUAAGUCAACAGAUCUUCUGUUGAUAUGGAUGCAGUUCACAGACUAAAUGUCGGUCGGGGAAGAUGUAUUCUUCUCAUAAGAUAUAGUCGGACCUCUCCUUAAUGGGAGCUAGCGGAUGAAGUGAUGCAACACUGGAGCCGCUGGGAACUAAUUUGUAUGCGAAAGUAUAUUGAUUAGUUUUGGAGUACUCGUGGUCG
How it was run: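 The eight P1ex-region nucleotides of an intron in the knt kanamycin-resistance gene on pET-22b(+) were all randomised and the library put into E. coli BL21(DE3). Six replicate transformations were grown overnight at 37°C or 30°C on LB agar with or without 25 μg/mL kanamycin, together with 100 μg/mL carbenicillin, 50 μM IPTG and 0.2% rhamnose. Colonies were pooled and amplicon-sequenced on an Illumina HiSeq 2500. Fitness from DiMSum is the error-weighted combination of wild-type-normalised replicate fold changes, kanamycin over none.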

| Sequence | self-splicing fitness (ln) (30 °C) | self-splicing fitness (ln) (37 °C) |
| --- | --- | --- |
| GCUUAGCAAUAUUACGGCGA | -1.75 ± 0.14 | -1.33 ± 0.16 |
| GGGUAGCAAUAUUACGGAUG | -1.19 ± 0.17 | -2.61 ± 0.28 |
| GACGAGCAAUAUUACGUGAU | -3.53 ± 0.17 | -2.6 ± 0.16 |
| AAUCAGCAAUAUUACGCAAG | -0.971 ± 0.068 | -0.72 ± 0.087 |
| CUCAAGCAAUAUUACGGAAC | -4.26 ± 0.42 | -2.46 ± 0.3 |
| CCCCAGCAAUAUUACGCGUC | -3.21 ± 0.17 | -2.92 ± 0.18 |
| UGCGAGCAAUAUUACGCCGU | -3.36 ± 0.23 | -2.54 ± 0.3 |
| GAAGAGCAAUAUUACGCACG | -2.22 ± 0.1 | -1.71 ± 0.16 |
| CGGCAGCAAUAUUACGGAGU | -3.46 ± 0.27 | -2.33 ± 0.2 |
| UUAGAGCAAUAUUACGUUUU | -3.39 ± 0.32 | -2.3 ± 0.27 |
| GGCCAGCAAUAUUACGAGAU | -2.68 ± 0.18 | -2.82 ± 0.24 |
| ACCUAGCAAUAUUACGCUUC | -1.2 ± 0.1 | -1.1 ± 0.11 |
| CGGAAGCAAUAUUACGUGCG | -1.64 ± 0.095 | -1.05 ± 0.14 |
| AAGUAGCAAUAUUACGCUGA | -1.36 ± 0.15 | -0.457 ± 0.14 |
| ACUCAGCAAUAUUACGAUCG | -1.54 ± 0.074 | -0.221 ± 0.12 |
| AGACAGCAAUAUUACGGAUG | -2.81 ± 0.11 | -2.38 ± 0.17 |
| UGUGAGCAAUAUUACGCGAA | -4.12 ± 0.29 | -2.54 ± 0.18 |
| AAUGAGCAAUAUUACGGCAC | -2.9 ± 0.28 | -1.27 ± 0.32 |
| UAGCAGCAAUAUUACGUGGC | -4.18 ± 0.26 | -2.12 ± 0.21 |
| ACGGAGCAAUAUUACGCGUA | -2.62 ± 0.12 | -1.32 ± 0.11 |
| UCCUAGCAAUAUUACGCGAG | -3.06 ± 0.27 | -3.22 ± 0.37 |
| UGCGAGCAAUAUUACGAUAA | -3.41 ± 0.23 | -2.01 ± 0.18 |
| UUGGAGCAAUAUUACGACGC | – | -2.47 ± 0.33 |
| UAUGAGCAAUAUUACGUAAG | – | -2.16 ± 0.19 |
| UGAUAGCAAUAUUACGGAUU | -2.78 ± 0.23 | -0.278 ± 0.19 |
| CGAUAGCAAUAUUACGCGGG | -4.21 ± 0.31 | -2.42 ± 0.24 |

| Sequence | self-splicing fitness (ln) (30 °C) | self-splicing fitness (ln) (37 °C) |
| --- | --- | --- |
| AGCAAGCAAUAUUACGUGUA | -2.19 ± 0.07 | -1.49 ± 0.072 |
| GGCCAGCAAUAUUACGCGUA | -1.07 ± 0.11 | -0.484 ± 0.1 |
| AACUAGCAAUAUUACGAACC | -0.5 ± 0.2 | -0.373 ± 0.21 |
| GAUAAGCAAUAUUACGACGG | -2.96 ± 0.17 | -2.34 ± 0.27 |
| CGACAGCAAUAUUACGUGCA | -1.57 ± 0.057 | -0.14 ± 0.07 |
| AGUCAGCAAUAUUACGUGCA | -0.269 ± 0.073 | -0.501 ± 0.099 |
| AACUAGCAAUAUUACGUAAU | -1.82 ± 0.098 | -0.948 ± 0.099 |
| CUCUAGCAAUAUUACGUGCA | -2.34 ± 0.43 | – |
| AUUAAGCAAUAUUACGGCGC | -0.47 ± 0.15 | 0.103 ± 0.17 |
| GGGUAGCAAUAUUACGUCCA | -0.128 ± 0.093 | 0.376 ± 0.12 |
| UACUAGCAAUAUUACGUCCA | -0.715 ± 0.1 | -0.49 ± 0.13 |
| GAAGAGCAAUAUUACGGGCC | -2.16 ± 0.29 | – |
| UGAAAGCAAUAUUACGCCUC | -1.85 ± 0.28 | – |
| GAGUAGCAAUAUUACGUAUU | -3.24 ± 0.16 | -1.79 ± 0.11 |
| GACUAGCAAUAUUACGUGCA | -0.898 ± 0.059 | -0.504 ± 0.068 |
| ACCGAGCAAUAUUACGCUGG | -4.24 ± 0.26 | -2.13 ± 0.21 |
| UGUGAGCAAUAUUACGCUGG | -2.49 ± 0.28 | -2.71 ± 0.37 |
| GCAGAGCAAUAUUACGGUUG | -3.01 ± 0.34 | -2.87 ± 0.47 |
| CCCGAGCAAUAUUACGGCGG | -3.49 ± 0.23 | -1.66 ± 0.2 |
| CUCAAGCAAUAUUACGUGUA | -2.47 ± 0.13 | -1.91 ± 0.11 |
| AUCAAGCAAUAUUACGUGUC | -3.9 ± 0.15 | -2.6 ± 0.16 |
| CCACAGCAAUAUUACGGGGA | -3.12 ± 0.19 | -2.51 ± 0.17 |
| AUGCAGCAAUAUUACGUAGA | -1.71 ± 0.079 | -1.09 ± 0.1 |
| GAGAAGCAAUAUUACGAGAG | -2.86 ± 0.23 | -1.91 ± 0.22 |
| AGACAGCAAUAUUACGAGUA | -3.42 ± 0.21 | -1.47 ± 0.15 |
| AUUCAGCAAUAUUACGCUAG | -1.56 ± 0.13 | -0.152 ± 0.14 |

| Sequence | self-splicing fitness (ln) (30 °C) | self-splicing fitness (ln) (37 °C) |
| --- | --- | --- |
| CAAUAGCAAUAUUACGCGUC | -4.09 ± 0.25 | -3 ± 0.22 |
| UUCAAGCAAUAUUACGAAAC | -2.77 ± 0.31 | -2.89 ± 0.35 |
| CGUAAGCAAUAUUACGAUGC | – | -2.04 ± 0.26 |
| AGAGAGCAAUAUUACGGAUG | – | -1.4 ± 0.36 |
| ACAAAGCAAUAUUACGCUUU | -3.64 ± 0.24 | -2.16 ± 0.17 |
| AGGAAGCAAUAUUACGAUGA | -0.649 ± 0.13 | -0.773 ± 0.17 |
| AUGGAGCAAUAUUACGCACU | -0.628 ± 0.14 | -0.159 ± 0.18 |
| GUCUAGCAAUAUUACGUGAC | -3.73 ± 0.33 | -0.257 ± 0.2 |
| AAGCAGCAAUAUUACGCAUC | -2.72 ± 0.18 | – |
| AUCGAGCAAUAUUACGUGUC | -3.76 ± 0.22 | -0.765 ± 0.13 |
| UCUAAGCAAUAUUACGUGGA | -2.82 ± 0.19 | -3.51 ± 0.39 |
| CUGGAGCAAUAUUACGGUGA | -2.75 ± 0.24 | -3.22 ± 0.35 |
| CAAAAGCAAUAUUACGAUCA | -1.42 ± 0.12 | -1.25 ± 0.12 |
| GAACAGCAAUAUUACGUGUC | -3.49 ± 0.14 | -3.22 ± 0.17 |
| CAAAAGCAAUAUUACGGCUA | -0.892 ± 0.088 | -0.809 ± 0.083 |
| AUAAAGCAAUAUUACGUUGA | -2.1 ± 0.095 | -1.77 ± 0.13 |
| GCGAAGCAAUAUUACGGUGG | -4.24 ± 0.23 | -3.08 ± 0.27 |
| CCAUAGCAAUAUUACGCACG | -0.758 ± 0.081 | -0.715 ± 0.1 |
| CGUUAGCAAUAUUACGGUGU | -3.37 ± 0.19 | -2.29 ± 0.17 |
| GAUAAGCAAUAUUACGCGCA | -0.808 ± 0.085 | 0.383 ± 0.13 |
| AGGGAGCAAUAUUACGUUGA | – | -2.8 ± 0.24 |
| CCUAAGCAAUAUUACGUCAA | -2.65 ± 0.16 | -3.14 ± 0.21 |
| UGCCAGCAAUAUUACGGAUU | -1.67 ± 0.068 | -0.242 ± 0.074 |
| CACAAGCAAUAUUACGCAGU | -3.4 ± 0.2 | -2.37 ± 0.16 |
| GAACAGCAAUAUUACGGAUA | -2.51 ± 0.13 | -1.28 ± 0.12 |
| AGUCAGCAAUAUUACGACGA | -0.25 ± 0.07 | -0.283 ± 0.11 |
